Assay results from patent publication US20210269517A1, “METHOD OF TREATING WASTING DISORDERS” (CSL Limited, priority 2018, published 2021).

T1: VEGF-B (Mus musculus, UniProt P49766)
T1 construct: endogenous in cells; host or cells: C57BL/6 male mice (in vivo)
T1 sequence (P49766 22-207): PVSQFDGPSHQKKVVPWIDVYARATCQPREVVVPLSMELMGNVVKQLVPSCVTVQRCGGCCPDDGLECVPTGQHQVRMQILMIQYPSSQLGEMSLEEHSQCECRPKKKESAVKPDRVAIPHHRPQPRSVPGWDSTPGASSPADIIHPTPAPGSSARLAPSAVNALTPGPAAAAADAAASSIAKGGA


Key:
[1] = tested on: visceral epididymal adipose tissue; assay: Forskolin-stimulated lipolysis in adipose tissue explants in the presence of Atglistatin; format: cell-based, mice; settings: 5 μM Atglistatin, 10 μM forskolin
Procedure: Male C57BL/6 wild-type mice and aged matched Vegfb^−/− mice (12 weeks old) were subjected to 14 hours of overnight fasting. Animals were sacrificed using carbon dioxide anaesthetics and visceral epididymal adipose tissue was surgically removed, washed in DPBS, and incubated in prewarmed (37° C.) DMEM (Dulbecco's modified Eagle's medium (DMEM, 1 g/l glucose; GIBCO, Life Technologies, Carlsbad, Calif.) until use. For measurements of forskolin-stimulated lipolysis, the adipose tissue pieces (20±5 mg) were pre-incubated in 200 μl DMEM containing 2% BSA (FA-free; Sigma-Aldrich) or 10 μM forskolin (Sigma-Aldrich) in the presence or absence of or 5 μM Atglistatin (Sigma-Aldrich) in 96-well plates at 37° C., 5% CO2, and 95% humidified atmosphere for 60 min. For measurements of basal lipolysis no pre-incubation was performed. Adipose tissue explants were transferred into 200 μl of identical fresh medium and incubated for further 60 min (=period of measurement) at 37° C., 5% CO2, and 95% humidified atmosphere. FA content was determined from the incubation media using a NEFA kit (Wako chemicals). The total amount of protein was measured by transferring the tissue explants into 1 ml extraction solution (Chloroform/methanol (2:1, v/v), 1% glacial acetic acid) and incubated for 60 min at 37° C. under vigorous shaking. […] Protein content of the adipose tissue explant lysates was determined from the lysed solution using BCA reagent kit (Pierce) and BSA as standard. The rate of lipolysis rate was calculated as the amount of NEFAs/mg protein/hrs. […]
Mice carrying the lox-containing gene construct allowing for Cre recombinase-mediated tissue specific ablation of Vegfb (Vegfb Flox+ mice) were generated by Taconic Artemis (Cologne, Germany). […] FA content was determined from the incubation media using a NEFA kit (Wako chemicals). The total amount of protein was measured by transferring the tissue explants into 1 ml extraction solution (Chloroform/methanol (2:1, v/v), 1% glacial acetic acid) and incubated for 60 min at 37° C. under vigorous shaking. […]

VEGF-B [2] = target: T1, VEGF-B; assay: Body weight and blood glucose in chow-fed and overnight-fasted mice treated with anti-VEGF-B antibody; format: in vivo, C57BL/6 mice; settings: fed or fasted state (14 h overnight); 400 μg i.p. twice weekly, 3 injections; vs isotype control
Procedure: Male C57BL/6 wild-type mice and aged matched (12 weeks) Vegfb^+/− and Vegfb^−/− mice were subjected to 14 hours of overnight fasting. Body weight and blood glucose levels were recorded before and after fasting. Body weight drop was calculated as a percentage of weight loss determined by recording body weight in the fasted and fed state. Glucose measurements were performed using a Bayer Contour Glucose meter on blood from the tail vein. Statistical analyses were performed using one-way ANOVA.
(§1) C57BL/6 male mice purchased from Janvier labs and injected with 3 consecutive injections intraperitoneally (i.p.) twice weekly with 400 μg of anti-VEGF-B antibody (2H10) or an isotype matched control antibody. At the age of 12-16 weeks animals were subjected to 14 hours of overnight fasting. Body weight and blood glucose levels were determined as described above.

VEGF-B [3] = target: T1, VEGF-B; assay: Plasma NEFAs, glycerol, triglycerides and insulin in fasting-induced lipolysis; format: in vivo, C57BL/6 mice
Procedure: Male C57BL/6 mice and aged matched Vegfb^+/− and Vegfb^−/− (12 weeks old) mice were subjected to 14 hours of overnight fasting. Animals were sacrificed using carbon dioxide anaesthetics and total blood was removed by cardiac puncture. Blood was centrifuged at 14000 rpm, 4° C. for 10 minutes, serum was separated and frozen in aliquots at −80° C. Commercially available kits were used for enzymatic determination of non-esterified fatty acids (NEFAs; Wako Chemicals), glycerol (Abcam), triglycerides (TAGs; Sigma-Aldrich) and insulin (Mercodia). Statistical analyses were performed using one-way ANOVA.
as §1
C57BL/6 male mice were treated with an anti-VEGF-B antibody (2H10) or an isotype matched control antibody as described above. At the age of 12-16 weeks animals were subjected to 14 hours of overnight fasting, sacrificed using carbon dioxide anaesthetics and total blood removed by cardiac puncture and processed as described above. Enzymatic determination of NEFAs (Wako Chemicals) and glycerol (Abcam), triglycerides (Sigma-Aldrich) and insulin (Mercodia) was performed as previously described.

VEGF-B [4] = target: T1, VEGF-B; assay: Ex vivo lipolysis rate in visceral epididymal adipose tissue of antibody-treated mice; parameters: species or system C57BL/6 mice; settings: vs control treated
Procedure: Male C57BL/6 wild-type mice and aged matched Vegfb^−/− mice (12 weeks old) were subjected to 14 hours of overnight fasting. […] FA content was determined from the incubation media using a NEFA kit (Wako chemicals). The total amount of protein was measured by transferring the tissue explants into 1 ml extraction solution (Chloroform/methanol (2:1, v/v), 1% glacial acetic acid) and incubated for 60 min at 37° C. under vigorous shaking. […] Protein content of the adipose tissue explant lysates was determined from the lysed solution using BCA reagent kit (Pierce) and BSA as standard. The rate of lipolysis rate was calculated as the amount of NEFAs/mg protein/hrs. […]
C57BL/6 male mice purchased from Janvier labs and injected with 3 consecutive injections intraperitoneally (i.p.) twice weekly with 400 μg of anti-VEGF-B antibody (2H10) or an isotype matched control antibody. […] Body weight and blood glucose levels were determined as described above.
C57BL/6 male mice were treated with an anti-VEGF-B antibody (2H10) or an isotype matched control antibody as described above. […] Basal and forskolin-stimulated lipolysis was measured as previously described above.

VEGF-B [5] = target: T1, VEGF-B; assay: Hepatic lipid droplet quantification (adipophilin) during fasting-induced lipolysis; format: in vivo, C57BL/6 mice; settings: vs control treated
Procedure: Male C57BL/6 mice and aged matched (12 weeks) Vegfb^+/− and Vegfb^−/− mice were subjected to 14 hours of overnight fasting. Animals were sacrificed using carbon dioxide anaesthetics and livers and hearts were dissected. For Oil Red 0 (ORO) analysis, liver biopsies were embedded in Tissue-Tek® (Sakura) directly on the mould of the cryostat. Cryo sections (12 μm) were immersed either 5 min (liver) or 8 min (heart) in ORO working solution (2.5 g oil red 0 (Sigma-Aldrich), dissolved in 400 ml 99% isopropanol, further diluted 6:10 in H2O, filtered through a […] filter (Corning). Thereafter the sections were submerged for 3 secs in hematoxylin solution followed by short submerging in LiCO3 (for liver) and rinsed for 10 min under running tap water before they were mounted. Stained sections were examined with bright field microscopy. At least 10 frames per animal within each section were photographed with an Axio Vision microscope (Carl Zeiss) at 20× magnification. The amount of neutral lipids was quantified using Axio Vision Run wizard program for liver or heart ORO staining (pixel^2/μm^2). For measurements of lipid droplets, liver biopsies were fixed in 4% PFA for 24 hours and subsequently processed for paraffin embedding using standard procedures and 4 μm sections were prepared. Antigen retrieval was performed using Antigen retrieval solution Ph6 (Dako #S2367) and heating at 98° C. for 10 min. Sections were incubated at 4° C. overnight with guinea pig anti-adipophilin (Fitzgerald) antibody. […] The amount of lipid droplets was quantified using Axio Vision Run wizard program for hepatic adipophilin+staining (pixel^2/μm^2 or arbitrary units).
C57BL/6 male mice purchased from Janvier labs and injected with 3 consecutive injections intraperitoneally (i.p.) twice weekly with 400 μg of anti-VEGF-B antibody (2H10) or an isotype matched control antibody. […] Body weight and blood glucose levels were determined as described above. […]

[6] = chow-fed mice, vs isotype control
[7] = fasted mice, between treatment groups

| Molecule | Forskolin-stimulated lipolysis rate ([1]; explants of AdiCre/Vegfb Flox+, WT/WT, WT/Vegfb Flox+ and AdiCre/WT mice) | Forskolin-stimulated lipolysis ([1]; explants of anti-VEGF-B and control treated C57BL/6 mice) | Forskolin-stimulated lipolysis ([1]; explants of wild-type and Vegfb−/− mice) | Blood glucose levels (VEGF-B [2]) | Body weight (VEGF-B [2]) | Plasma insulin levels (VEGF-B [3]; [6]) | Plasma levels of NEFAs (VEGF-B [3]; [6]) | Plasma levels of TAGs (VEGF-B [3]; [6]) | Plasma levels of glycerol (VEGF-B [3]; [6]) | Plasma levels of NEFAs (VEGF-B [3]; fasted mice (14 h overnight)) | Plasma levels of glycerol (VEGF-B [3]; fasted mice (14 h overnight)) | Fasting plasma TAG levels (VEGF-B [3]; [7]) | Fasting plasma insulin levels (VEGF-B [3]; [7]) | Forskolin-stimulated lipolysis rate (VEGF-B [4]; 10 μM forskolin) | Basal lipolysis rate (VEGF-B [4]; adipose tissue of fasted mice) | Hepatic lipid accumulation (VEGF-B [5]; fasting conditions (fasting-induced lipolysis)) | Hepatic lipid accumulation (VEGF-B [5]; fasting conditions (fasting-induced lipolysis), listed as anti-VEGF-B) | Hepatic lipid accumulation (VEGF-B [5]; fed conditions) |
| --- | --- | --- | --- | --- | --- | --- | --- | --- | --- | --- | --- | --- | --- | --- | --- | --- | --- | --- |
| CN(C)C(=O)Nc1cccc(-c2ccc(N(C)C)cc2)c1 [Atglistatin] | inhibited | decreased | decreased | – | – | – | – | – | – | – | – | – | – | – | – | – | – | – |
| 2H10: anti-VEGF-B antibody comprising a VH of SEQ ID NO: 3 and a VL of SEQ ID NO: 4 (antibody, V domains shown, amino acid sequence from a VH of antibody 2H10; amino acid sequence from a VL of antibody 2H10) VH: VQLQQPGTELVKPGASVKLSCKASGYTFTGFWIHWVKQRPGQGLEWIGHINPGNGGTNYNEKFKRMATLTVDKSSSTAYMQLSSLTSEDSAVYYCARSYSNYVRAMDYWGQGTSVTVSS VL: IQMTQTTSSLSASLGDRVTISCRASQDISNFLNWYQQKPDGTVKLLIYYTSTLHSGVPSRFSGSGSGTDYSLTISNLEQEDIATYFCQQGKTLPPTFGGGTKLEIK | – | – | – | does not Influence | does not Influence | significant increase | did not alter | did not alter | did not alter | not increased | not increased | No differences | No differences | No effect | significantly reduces | inhibited | significantly reduced | significantly reduced |
